In article PMC3168117 (Nature structural & molecular biology, 2011):

Biological target: the molecule itself
Assay: SEC-MALS

B1: VopL W3-C (residues 115-484: three WH2 motifs and the VCD) (domain or fragment, Vibrio parahaemolyticus, UniProt Q87GE5 115-484, looked up)
chain: NLSKGAPKSSSNSLDSVNEDHSKLMEQIRQGVKLKSATKSLSADKSSADAHSKLMEELLTGGRKLKKVATSDIPAPPPLPSASTSKSPDSRNALLSEIAGFSKDRLRKTGSLETLNSSQSKDKESFEPTTHERLLSEDLFKQSPKLSEQELDELANNLADYLFQAADIDWHQVISEKTRGLTTEEMAKSEHRYVQAFCREILKYPDCYKSADVASPESPKSGGGSVIDVALKRLQTGRERLFTTTDEKGNRELKKGDAILESAINAARMAISTEEKNTILSNNVKSATFEVFCELPCMDGFAEQNGKTAFYALRAGFYSAFKNTDTAKQDITKFMKDNLQAGFSGYSYQGLTNRVAQLEAQLAALSAKLS
For B1, the “stoichiometry N” value was 2.
